Molecular target: mouse FGFR4/β-klotho complex co-expressed in rat L6 myoblast cells (mouse, UniProt Q03142 17-799; Q99N32 1-1043)
Test: cell-based or functional assay

Sequence of mouse FGFR4/β-klotho complex co-expressed in rat L6 myoblast cells (Q03142 17-799, chain 1 of 2): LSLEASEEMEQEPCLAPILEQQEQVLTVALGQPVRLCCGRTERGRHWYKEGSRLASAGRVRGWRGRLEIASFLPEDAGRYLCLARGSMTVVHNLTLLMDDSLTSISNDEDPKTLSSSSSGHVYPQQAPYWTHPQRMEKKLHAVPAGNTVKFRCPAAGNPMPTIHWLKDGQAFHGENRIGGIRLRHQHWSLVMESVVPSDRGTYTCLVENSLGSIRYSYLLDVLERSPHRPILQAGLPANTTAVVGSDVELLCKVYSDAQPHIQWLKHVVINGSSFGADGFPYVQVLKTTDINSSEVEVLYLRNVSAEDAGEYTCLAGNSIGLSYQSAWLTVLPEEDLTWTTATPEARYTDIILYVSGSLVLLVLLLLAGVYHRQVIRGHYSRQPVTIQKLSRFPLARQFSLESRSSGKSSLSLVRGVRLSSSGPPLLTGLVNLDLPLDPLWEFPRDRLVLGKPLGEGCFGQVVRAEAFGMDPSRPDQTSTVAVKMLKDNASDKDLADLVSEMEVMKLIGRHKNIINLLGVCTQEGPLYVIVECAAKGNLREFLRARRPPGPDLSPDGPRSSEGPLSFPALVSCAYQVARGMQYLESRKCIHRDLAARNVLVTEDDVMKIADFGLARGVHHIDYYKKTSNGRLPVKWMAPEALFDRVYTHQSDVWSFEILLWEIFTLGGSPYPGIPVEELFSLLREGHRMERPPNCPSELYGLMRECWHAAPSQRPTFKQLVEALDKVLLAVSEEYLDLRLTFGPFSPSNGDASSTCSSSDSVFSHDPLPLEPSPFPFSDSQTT
Sequence of mouse FGFR4/β-klotho complex co-expressed in rat L6 myoblast cells (Q99N32 whole entry, chain 2 of 2): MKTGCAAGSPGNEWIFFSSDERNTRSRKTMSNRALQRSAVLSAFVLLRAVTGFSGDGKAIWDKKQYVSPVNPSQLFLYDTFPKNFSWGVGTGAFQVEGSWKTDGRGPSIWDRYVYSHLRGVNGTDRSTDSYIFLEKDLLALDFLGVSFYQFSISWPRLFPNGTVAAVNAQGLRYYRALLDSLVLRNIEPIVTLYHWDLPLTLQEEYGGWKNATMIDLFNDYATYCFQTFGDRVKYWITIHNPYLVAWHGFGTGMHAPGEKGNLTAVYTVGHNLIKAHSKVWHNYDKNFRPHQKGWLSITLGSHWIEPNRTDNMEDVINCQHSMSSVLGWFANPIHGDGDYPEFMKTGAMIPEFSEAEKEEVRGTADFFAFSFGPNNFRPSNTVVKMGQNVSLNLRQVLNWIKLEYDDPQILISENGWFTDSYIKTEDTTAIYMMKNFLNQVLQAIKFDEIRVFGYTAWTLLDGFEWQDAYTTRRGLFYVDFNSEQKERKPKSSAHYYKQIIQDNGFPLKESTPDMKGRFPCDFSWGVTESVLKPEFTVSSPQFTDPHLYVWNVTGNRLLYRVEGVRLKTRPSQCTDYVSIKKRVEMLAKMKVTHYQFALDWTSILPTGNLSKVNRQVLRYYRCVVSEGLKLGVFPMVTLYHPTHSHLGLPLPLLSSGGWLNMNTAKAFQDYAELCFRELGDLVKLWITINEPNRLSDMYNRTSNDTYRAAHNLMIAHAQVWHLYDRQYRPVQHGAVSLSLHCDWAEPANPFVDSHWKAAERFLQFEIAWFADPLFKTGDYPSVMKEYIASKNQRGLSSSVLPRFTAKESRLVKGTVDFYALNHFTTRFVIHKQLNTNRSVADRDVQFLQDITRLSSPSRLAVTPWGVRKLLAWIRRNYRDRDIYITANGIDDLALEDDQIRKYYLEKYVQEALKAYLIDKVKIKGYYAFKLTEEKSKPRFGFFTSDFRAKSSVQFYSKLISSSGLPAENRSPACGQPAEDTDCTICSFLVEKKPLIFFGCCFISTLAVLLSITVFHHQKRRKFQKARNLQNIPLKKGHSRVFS

- EC50 (pM), ELK1 luciferase reporter in L6 cells transfected with mouse FGFR4 and β-klotho: 38.3 pM
- Emax (fold potentiation), ELK1 luciferase reporter in L6 cells transfected with mouse FGFR4 and β-klotho: 1.85 fold potentiation
B1: M70 (FGF19 variant) (ligand)
chain: MRDSSPLVHYGWGDPIRLRHLYTSGPHGLSSCFLRIRADGVVDCARGQSAHSLLEIKAVALRTVAIKGVHSVRYLCMGADGKMQGLLQYSEEDCAFEEEIRPDGYNVYRSEKHRLPVSLSSAKQRQLYKNRGFLPLSHFLPMLPMVPEEPEDLRGHLESDMFSSPLETDSMDPFGLVTGLEAVRSPSFEK

— patent US20200390859A1 (NGM BIOPHARMACEUTICALS, published 2020)
